Results from patent publication US20250066745A1, “MUTANTS AND USE THEREOF” (BGI SHENZHEN, priority 2021, published 2025).
Where a chain is given by its changes, count along the chain named. Numbers in names are those of the source.

B1: Q152H Q163S T167G S170V G174N G183A: Gaussia luciferase mutant (protein)
chain: MGVKVLFALICIAVAEAKPTENNEDFNIVAVASNFATTDLDADRGKLPGKKLPLEVLKEMEANARKAGCTRGCLICLSHIKCTPKMKKFIPGRCHTYEGDKESAQGGIGEAIVDIPEIPGFKDLEPMEQFIAQVDLCVDCTTGCLKGLANVHCSDLLKKWLPSRCAGFAVKIQNQVDKIKGAAGD
modifications: SIGNAL (1)..(17)
notes: Gaussia luciferase mutant
B2: T167S S170D G174N Q175E K178N A182L: Gaussia luciferase mutant (protein)
chain: B1 chain with H152Q, S163Q, G167S, V170D, Q175E, K178N, A182L, A183G
modifications: SIGNAL (1)..(17)
notes: Gaussia luciferase mutant
B3: Q152R Q163S T167G S170D G174K A182Y G183A: Gaussia luciferase mutant (protein)
chain: B1 chain with H152R, V170D, N174K, A182Y
modifications: SIGNAL (1)..(17)
notes: Gaussia luciferase mutant
B4: Q163S T167S S170T G174N K178T: Gaussia luciferase mutant (protein)
chain: B1 chain with H152Q, G167S, V170T, K178T, A183G
modifications: SIGNAL (1)..(17)
notes: Gaussia luciferase mutant
B5: Q152R T167G S170N K178S A182L G183N: Gaussia luciferase mutant (protein)
chain: B1 chain with H152R, S163Q, V170N, N174G, K178S, A182L, A183N
modifications: SIGNAL (1)..(17)
notes: Gaussia luciferase mutant
B6: Q152H Q163T T167S S170D G174K K178N A182Y G183N: Gaussia luciferase mutant (protein)
chain: B1 chain with S163T, G167S, V170D, N174K, K178N, A182Y, A183N
modifications: SIGNAL (1)..(17)
notes: Gaussia luciferase mutant
B7: Q152R Q163T T167S S170N G174K K178S A182Y G183A: Gaussia luciferase mutant (protein)
chain: B1 chain with H152R, S163T, G167S, V170N, N174K, K178S, A182Y
modifications: SIGNAL (1)..(17)
notes: Gaussia luciferase mutant
B8: T96P Q163D T167S G174N K178S A182Y G183A: Gaussia luciferase mutant (protein)
chain: B1 chain with T96P, H152Q, S163D, G167S, V170S, K178S, A182Y
modifications: SIGNAL (1)..(17)
notes: Gaussia luciferase mutant
B9: E102K S103T E110A: Gaussia luciferase mutant (protein)
chain: B1 chain with E102K, S103T, E110A, H152Q, S163Q, G167T, V170S, N174G, A183G
modifications: SIGNAL (1)..(17)
notes: Gaussia luciferase mutant
B10: Q152R S154F Q163D S170T G174N K178T A182Y: Gaussia luciferase mutant (protein)
chain: B1 chain with H152R, S154F, S163D, G167T, V170T, K178T, A182Y, A183G
modifications: SIGNAL (1)..(17)
notes: Gaussia luciferase mutant
B11: Q152K Q163D S170N G174K Q175E K178T A182L G183A: Gaussia luciferase mutant (protein)
chain: B1 chain with H152K, S163D, G167T, V170N, N174K, Q175E, K178T, A182L
modifications: SIGNAL (1)..(17)
notes: Gaussia luciferase mutant
B12: Q152R Q163S T167G S170V G174K Q175E K178S A182Y G183A: Gaussia luciferase mutant (protein)
chain: B1 chain with H152R, N174K, Q175E, K178S, A182Y
modifications: SIGNAL (1)..(17)
notes: Gaussia luciferase mutant
B13: V29A A30D V31I A32V S33N L40A: Gaussia luciferase mutant (protein)
chain: MGVKVLFALICIAVAEAKPTENNEDFNIADIVNNFATTDADADRGKLPGKKLPLEVLKEMEANARKAGCTRGCLICLSHIKCTPKMKKFIPGRCHTYEGDKESAQGGIGEAIVDIPEIPGFKDLEPMEQFIAQVDLCVDCTTGCLKGLANVQCSDLLKKWLPQRCATFASKIQGQVDKIKGAGGD
modifications: SIGNAL (1)..(17)
notes: Gaussia luciferase mutant
B14: V29L A30G A32V S33G A36N T37A L40S: Gaussia luciferase mutant (protein)
chain: B13 chain with A29L, D30G, I31V, N33G, A36N, T37A, A40S
modifications: SIGNAL (1)..(17)
notes: Gaussia luciferase mutant
B15: V29S A30G V31I A32V S33G A36D T37A: Gaussia luciferase mutant (protein)
chain: B13 chain with A29S, D30G, N33G, A36D, T37A, A40L
modifications: SIGNAL (1)..(17)
notes: Gaussia luciferase mutant
B16: F26A N27D V29R A30G A32E S33G A36P L40A: Gaussia luciferase mutant (protein)
chain: B13 chain with F26A, N27D, A29R, D30G, I31V, V32E, N33G, A36P
modifications: SIGNAL (1)..(17)
notes: Gaussia luciferase mutant
B17: F26C V29L A30D V31L A32V S33G L40I: Gaussia luciferase mutant (protein)
chain: B13 chain with F26C, A29L, I31L, N33G, A40I
modifications: SIGNAL (1)..(17)
notes: Gaussia luciferase mutant

Assays:
[1] = Luminescence activity assay of purified Gaussia luciferase mutants on coelenterazine derivative ZS2; assay type: biochemical; set-up: key to Activity of mutant relative to wild-type Gaussia luciferase without the signal peptide: ratio of mutant luminescence intensity to wild-type Gaussia luciferase; details: Substrate ZS2 (Table 16)
Description: (§1) In this Example, the protein concentration was determined with a BCA quantitative kit (Thermo Scientific™ Pierce™ BCA Protein Assay Kit) accurately. The purified luciferase obtained in Example 5 was diluted with diluent (50 mM Tris-HCl, pH 8.0, 100 mM NaCl, 0.1% (v/v) Tween-20) to 1 μg/mL. The diluted luciferase, taken for 10 μL, was moved into a black 96-well plate, then added with 90 μL of the substrates coelenterazine, fluoro-coelenterazine or coelenterazine derivative ZS2 (purchased from Biolab) which was diluted into 100 μM with the same diluent, and the luminescence intensity of the plate was read with a self-luminescence module of a microplate reader. The mutation site of the mutant, the measured luminescence intensity, the ratio of luminescence intensities of the advantageous mutants to the wild-type Gaussia luciferase without the signal peptide having the sequence shown in SEQ ID NO: 3 are shown in Table 15. The results of catalytic activity assay of the advantageous mutants relative to the wild-type Gaussia luciferase without the signal peptide having the sequence shown in SEQ ID NO: 3 on substrate coelenterazine are shown in FIG. 6. […] The results of catalytic activity assay of the advantageous mutants relative to the wild-type Gaussia luciferase without the signal peptide having the sequence shown in SEQ ID NO: 3 on substrate fluoro-coelenterazine are shown in FIG. 7.
(§2) The new mutant library constructed in Example 7 was screened and tested for substrate specificity. Expression and purification schemes were the same as that in Example 5, and the activity assay scheme was the same as that in Example 6. The respective catalytic activities of combinatorial mutants on coelenterazine, fluoro-coelenterazine or coelenterazine derivative ZS2, and coelenterazine derivative ZS26 (purchased from BIOLAB) were assayed, and comparisons among the substrate specificities of the combinatorial mutants were based on the ratios of catalytic activities on two corresponding substrates.

[2] = Luminescence activity assay of purified Gaussia luciferase mutants on coelenterazine; assay type: biochemical; set-up: key to Activity of mutant relative to wild-type Gaussia luciferase without the signal peptide: ratio of mutant luminescence intensity to wild-type Gaussia luciferase; details: Substrate CTZ (Table 16)
Description: as §1, §2

| Molecule | Activity of mutant relative to wild-type Gaussia luciferase without the signal peptide [1] | Activity of mutant relative to wild-type Gaussia luciferase without the signal peptide [2] |
| --- | --- | --- |
| B1 | 0.064 | 0.006 |
| B2 | 0.890 | 0.850 |
| B3 | 1.402 | 1.050 |
| B4 | 2.603 | 0.706 |
| B5 | 0.737 | 0.807 |
| B6 | 0.089 | 0.079 |
| B7 | 0.413 | 1.030 |
| B8 | 0.273 | 0.007 |
| B9 | 1.504 | 0.864 |
| B10 | 0.003 | 0.020 |
| B11 | 1.183 | 1.079 |
| B12 | 1.011 | 0.992 |
| B13 | 1.164 | 1.046 |
| B14 | 1.976 | 0.764 |
| B15 | 0.142 | 0.000 |
| B16 | 0.684 | 0.034 |
| B17 | 0.312 | 0.000 |
